# Experimental data reported in patent publication US20080305116A1 (published 2008).
# Where a chain is given by its changes, count along the chain named. Numbers in names are those of the source.
# T1: human CD154, soluble antigen (human, UniProt P29965 116-261, limits assumed)
# T1 construct: KinExA uses 'soluble antigen'; also called CD40 ligand; CD40L
# T1 sequence (looked up): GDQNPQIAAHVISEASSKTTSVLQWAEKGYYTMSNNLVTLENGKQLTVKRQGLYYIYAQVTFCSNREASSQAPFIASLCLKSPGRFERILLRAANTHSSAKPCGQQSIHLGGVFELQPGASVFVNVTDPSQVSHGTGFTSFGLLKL
# T2: CD154 on D1.1 cells (human, UniProt P29965 1-261)
# T2 sequence (looked up): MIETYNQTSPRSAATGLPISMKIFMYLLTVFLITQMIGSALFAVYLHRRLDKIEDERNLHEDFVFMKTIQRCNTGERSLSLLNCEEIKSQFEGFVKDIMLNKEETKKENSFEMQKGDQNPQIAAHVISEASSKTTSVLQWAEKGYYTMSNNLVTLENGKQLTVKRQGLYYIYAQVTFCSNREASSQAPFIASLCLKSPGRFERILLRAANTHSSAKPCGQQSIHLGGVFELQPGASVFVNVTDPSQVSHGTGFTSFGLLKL
# B1: 5c8 Fab Mutant #14 (light chain S26D/Q27E) (Fab, V domains shown)
# VH: QVQLVQSGAEVVKPGASVKLSCKASGYIFTSYYMYWVKQAPGQGLEWIGEINPSNGDTNFNEKFKSKATLTVDKSASTAYMELSSLRSEDTAVYYCTRSDGRNDMDSWGQGTLVTVSS
# VL: DIVLTQSPATLSVSPGERATISCRADERVSSSTYSYMHWYQQKPGQPPKLLIKYASNLESGVPARFSGSGSGTDFTLTISSVEPEDFATYYCQHSWEIPPTFGGGTKLEIK
# notes: also called double mutant
# B2: 5c8 Fab Mutant #5 (light chain T33W) (Fab, V domains shown)
# VH: B1 VH
# VL: B1 VL with D26S, E27Q, T33W
# B3: 5c8 Fab Mutant #23 (heavy Y33W; light S26D/Q27E) (Fab, V domains shown)
# VH: B1 VH with Y33W
# VL: B1 VL
# B4: 5c8 Fab Mutant #18 (heavy T30H; light S26D/Q27E/T33W) (Fab, V domains shown)
# VH: B1 VH with T30H
# VL: B1 VL with T33W
# B5: 5c8 Fab Mutant #1 (heavy chain T30H) (Fab, V domains shown)
# VH: B1 VH with T30H
# VL: B1 VL with D26S, E27Q
# B6: 5c8 Fab Mutant #9 (light chain T33D) (Fab, V domains shown)
# VH: B1 VH
# VL: B1 VL with D26S, E27Q, T33D
# B7: 5c8 Fab Mutant #7 (light chain Q27E) (Fab, V domains shown)
# VH: B1 VH
# VL: B1 VL with D26S
# notes: also called Gln27Glu
# B8: 5c8 Fab Mutant #15 (light chain S26D/Q27E/T33W) (Fab, V domains shown)
# VH: B1 VH
# VL: B1 VL with T33W
# B9: 5c8 Fab Mutant #11 (heavy chain Y33F) (Fab, V domains shown)
# VH: B1 VH with Y33F
# VL: B1 VL with D26S, E27Q
# B10: 5c8 Fab Mutant #6 (light chain S26D) (Fab, V domains shown)
# VH: B1 VH
# VL: B1 VL with E27Q
# notes: also called Ser26Asp
# B11: 5c8 Fab Mutant #16 (heavy T30H; light S26D/Q27E) (Fab, V domains shown)
# VH: B1 VH with T30H
# VL: B1 VL
# B12: 5c8 Fab Mutant #24 (heavy T30H/Y33W; light S26D/Q27E) (Fab, V domains shown)
# VH: B1 VH with T30H, Y33W
# VL: B1 VL
# B13: 5c8 Fab Mutant #2 (heavy chain Y33W) (Fab, V domains shown)
# VH: B1 VH with Y33W
# VL: B1 VL with D26S, E27Q
# B14: 5c8 Fab Mutant #12 (heavy chain N59D) (Fab, V domains shown)
# VH: B1 VH with N59D
# VL: B1 VL with D26S, E27Q
# notes: also called Asn59Asp
# B15: 5c8 Fab Mutant #4 (heavy chain S54N) (Fab, V domains shown)
# VH: B1 VH with S54N
# VL: B1 VL with D26S, E27Q
# B16: 5c8 Fab Mutant #25 (heavy T30H/Y33W; light S26D/Q27E/T33W) (Fab, V domains shown)
# VH: B1 VH with T30H, Y33W
# VL: B1 VL with T33W
# B17: 5c8 Fab Mutant #13 (heavy chain N59L) (Fab, V domains shown)
# VH: B1 VH with N59L
# VL: B1 VL with D26S, E27Q
# notes: also called Asn59Leu
# B18: 5c8 Fab Mutant #10 (light chain Y54E) (Fab, V domains shown)
# VH: B1 VH
# VL: B1 VL with D26S, E27Q, Y54E
# notes: also called Tyr54Glu
# B19: 5c8 Fab Mutant #8 (light chain S31V) (Fab, V domains shown)
# VH: B1 VH
# VL: B1 VL with D26S, E27Q, S31V
# B20: 5c8 Fab Mutant #17 (heavy Y33W; light S26D/Q27E/T33W) (Fab, V domains shown)
# VH: B1 VH with Y33W
# VL: B1 VL with T33W
# B21: 5c8 Fab Mutant #21 (heavy T30H/Y33W/S54N; light S26D/Q27E) (Fab, V domains shown)
# VH: B1 VH with T30H, Y33W, S54N
# VL: B1 VL
# B22: 5c8 Fab Mutant #19 (heavy S54N; light S26D/Q27E) (Fab, V domains shown)
# VH: B1 VH with S54N
# VL: B1 VL
# B23: 5c8 Fab Mutant #26 (heavy T30H/S54N; light S26D/Q27E/T33W) (Fab, V domains shown)
# VH: B1 VH with T30H, S54N
# VL: B1 VL with T33W
# B24: 5c8 Fab Mutant #28 (heavy Y33W/S54N; light S26D/Q27E) (Fab, V domains shown)
# VH: B1 VH with Y33W, S54N
# VL: B1 VL
# B25: 5c8 Fab Mutant #22 (heavy T30H/Y33W/S54N; light S26D/Q27E/T33W) (Fab, V domains shown)
# VH: B1 VH with T30H, Y33W, S54N
# VL: B1 VL with T33W
# B26: 5c8 Fab Mutant #20 (heavy S54N; light S26D/Q27E/T33W) (Fab, V domains shown)
# VH: B1 VH with S54N
# VL: B1 VL with T33W
# B27: 5c8 Fab Mutant #3 (light chain Y36W) (Fab, V domains shown)
# VH: B1 VH
# VL: B1 VL with D26S, E27Q, Y36W
# B28: 5c8 Fab Mutant #27 (heavy Y33W/S54N; light S26D/Q27E/T33W) (Fab, V domains shown)
# VH: B1 VH with Y33W, S54N
# VL: B1 VL with T33W
# Target: T1, human CD154, soluble antigen
# Experiment: ELISA-based competitive binding assay; unlabeled Fab against biotin-labeled 5c8 Fab competitor
row,Binder,ELISA fold-improvement over wildtype [fold]
1,B1,5.6
2,B2,5
3,B3,5.2
4,B4,5.4
5,B5,2.3
6,B6,0.22
7,B7,6.3
8,B8,3.8
9,B9,0.05
10,B10,2.6
11,B11,5.8
12,B12,8
13,B13,7
14,B14,0.13
15,B15,2
16,B16,5.6
17,B17,0.01
18,B18,0.06
19,B19,0.02
20,B20,5.9

# Target: T1, human CD154, soluble antigen
# Experiment: assay not named in the sentence (the paragraph speaks of competitive ELISA)
row,Binder,fold higher affinity compared to the wildtype 5c8 Fab [fold]
1,B1,9

# Target: T2, CD154 on D1.1 cells
# Experiment: cell-based or functional assay
row,Binder,"IC50 (ug/ml), T cell-dependent B cell activation assay [µg/mL]"
1,B1,0.287
2,B16,0.165
3,B20,0.131

# Target: T1, human CD154, soluble antigen
# Experiment: assay not given
row,Binder,fold higher affinity compared to the wild type [fold]
1,B16,25

# Target: T1, human CD154, soluble antigen
# Experiment: KinExA solution-phase equilibrium, Fab with soluble antigen
row,Binder,Kd [nM]
1,B1,0.041
2,B2,0.158
3,B3,0.053
4,B4,0.054
5,B5,0.307
6,B21,0.101
7,B7,0.081
8,B8,0.044
9,B22,0.065
10,B10,0.142
11,B23,0.063
12,B11,0.07
13,B12,0.052
14,B24,0.077
15,B25,0.055
16,B13,0.169
17,B15,0.298
18,B16,0.012
19,B26,0.044
20,B27,0.42
21,B28,0.052
22,B20,0.023
